Test results reported in US20230064703A1.

How the values were obtained:
[1] = molecular target: human GITR expressed on Cho-K1 cells (human) (UniProt Q9Y5U5); test: FACS binding assay with GITR/Cho-K1, humanized antibody
[2] = molecular target: human GITR expressed on Cho-K1 cells (human) (UniProt Q9Y5U5); test: FACS, chimeric antibody on GITR/Cho-K1 cells, geometric mean, 4-parameter fit
[3] = molecular target: human GITR expressed on Cho-K1 cells (human) (UniProt Q9Y5U5); test: FACS binding assay with GITR/Cho-K1, chimeric antibody

Chain of human GITR expressed on Cho-K1 cells (human) (Q9Y5U5 26-241): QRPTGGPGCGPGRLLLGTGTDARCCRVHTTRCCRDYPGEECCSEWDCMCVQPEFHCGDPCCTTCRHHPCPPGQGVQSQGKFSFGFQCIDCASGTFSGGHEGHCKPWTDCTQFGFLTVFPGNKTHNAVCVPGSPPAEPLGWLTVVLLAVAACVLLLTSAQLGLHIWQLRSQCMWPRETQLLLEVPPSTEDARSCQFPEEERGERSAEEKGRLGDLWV

EC50 [1] [µg/mL] | EC50 [2] [µg/mL] | EC50 [3] [µg/mL] | Binder
0.181 | – | – | humanized antibody 225H7D12 VH1.4 + VL1.2 (antibody, V domains shown) VH: QVQLVQSGAEVKKPGASVKVSCKTTGYRFTGYWIEWVKQAPGQGLEWIGEILPGSGVSNNNEKFRDRATFTADTSINTAYMELSRLRSDDTAVYYCARKASYYTMDYWGQGTLVTVSS VL: DIQMTQSPSSLSASVGDRVTITCTASSSVSSFYFHWYQQKPGKAPKLWIYSISNLASGVPSRFSGSGSGTSYTLTISSLQPEDFATYYCHQYHRSPRTFGGGTKLEIK
– | 0.0443 | 0.111 | chimeric antibody 45F1F3 (human IgG1) (antibody, V domains shown) VH: DVQLQESGPGLVKPSQSLSLTCTVTGYSITIDYAWNWIRQFPGNKLEWMGYISNSGYTSYNPSLKSRISFTRDTSKNQFFLQLNSVTPEDSATYYCTRSGHYDLFDYWGQGTTLTVSS VL: DVVMTQAPLTLSVTIGQPASISCKSSQSLFDRDGKTYLSWLLERPGQSPKRLIYLVSNLDSGVPDRFTGSGSGTDFTLKISRVEAEDLGVYYCWQGTHFPYTFGGGTKVEMKR
– | 0.0566 | 0.112 | chimeric antibody 225H7D12 (human IgG1) (antibody, V domains shown) VH: QVQLQQSGAEVMKPGASVKLSCKTTGYRFTGYWIEWVKQRPGHGLEWIGEILPGSGVSNNNEKFRDKATFTADTSSNTAYIQLSSLTTDDSAIYYCARKASYYTMDYWGQGTSVTVSS VL: QIVLTQSPAIMSASLGERVTMTCTASSSVSSFYFHWYQQKPGSSPKLWIYSISNLASGVPTRFSGSGSGTSYSLTISSMEAEDAATYYCHQYHRSPRTFGGGTKLEIKR
